In IntAct's records for PubMed 17721439:
One block for each substance: values may come before it.

Assays:
[1] = biological target: wnk4_human WNK4 (UniProt Q96J92)
[2] = biological target: wnk4_human WNK4 (UniProt Q96J92); remark: listed apart in the source
[3] = biological target: wnk4_human WNK4 (UniProt Q96J92); remark: listed apart in the source
[4] = biological target: wnk4_human WNK4 (UniProt Q96J92); remark: listed apart in the source
[5] = biological target: wnk4_human WNK4 (UniProt Q96J92); remark: listed apart in the source
[6] = biological target: wnk1_human WNK1 (UniProt Q9H4A3)
[7] = biological target: SLC12A2 (UniProt P55011)
[8] = biological target: wnk4_human WNK4 (UniProt Q96J92); remark: listed apart in the source
[9] = biological target: wnk4_human WNK4 (UniProt Q96J92); remark: listed apart in the source
[10] = biological target: wnk1_human WNK1 (UniProt Q9H4A3); remark: listed apart in the source
[11] = biological target: SLC12A2 (UniProt P55011); remark: listed apart in the source
[12] = biological target: wnk4_human WNK4 (UniProt Q96J92); remark: listed apart in the source
[13] = biological target: wnk4_human WNK4 (UniProt Q96J92); remark: listed apart in the source

Serine/threonine-protein kinase OSR1 (Homo sapiens), O95747 L473A, sequence (O95747 whole entry L473A): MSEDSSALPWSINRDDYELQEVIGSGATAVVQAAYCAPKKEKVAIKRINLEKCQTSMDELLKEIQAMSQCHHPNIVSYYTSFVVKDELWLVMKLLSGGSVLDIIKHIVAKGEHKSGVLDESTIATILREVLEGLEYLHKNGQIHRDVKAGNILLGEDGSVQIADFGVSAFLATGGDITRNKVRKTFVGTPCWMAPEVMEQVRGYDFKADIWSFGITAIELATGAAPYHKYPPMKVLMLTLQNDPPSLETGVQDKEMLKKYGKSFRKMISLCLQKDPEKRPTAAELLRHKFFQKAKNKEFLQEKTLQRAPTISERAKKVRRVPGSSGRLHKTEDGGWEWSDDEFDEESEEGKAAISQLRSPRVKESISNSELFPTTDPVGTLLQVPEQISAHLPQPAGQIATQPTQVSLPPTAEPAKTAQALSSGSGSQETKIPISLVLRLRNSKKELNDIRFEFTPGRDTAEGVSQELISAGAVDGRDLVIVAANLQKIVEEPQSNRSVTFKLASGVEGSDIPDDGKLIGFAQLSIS
wnk4_human WNK4, sequence (Q96J92 whole entry): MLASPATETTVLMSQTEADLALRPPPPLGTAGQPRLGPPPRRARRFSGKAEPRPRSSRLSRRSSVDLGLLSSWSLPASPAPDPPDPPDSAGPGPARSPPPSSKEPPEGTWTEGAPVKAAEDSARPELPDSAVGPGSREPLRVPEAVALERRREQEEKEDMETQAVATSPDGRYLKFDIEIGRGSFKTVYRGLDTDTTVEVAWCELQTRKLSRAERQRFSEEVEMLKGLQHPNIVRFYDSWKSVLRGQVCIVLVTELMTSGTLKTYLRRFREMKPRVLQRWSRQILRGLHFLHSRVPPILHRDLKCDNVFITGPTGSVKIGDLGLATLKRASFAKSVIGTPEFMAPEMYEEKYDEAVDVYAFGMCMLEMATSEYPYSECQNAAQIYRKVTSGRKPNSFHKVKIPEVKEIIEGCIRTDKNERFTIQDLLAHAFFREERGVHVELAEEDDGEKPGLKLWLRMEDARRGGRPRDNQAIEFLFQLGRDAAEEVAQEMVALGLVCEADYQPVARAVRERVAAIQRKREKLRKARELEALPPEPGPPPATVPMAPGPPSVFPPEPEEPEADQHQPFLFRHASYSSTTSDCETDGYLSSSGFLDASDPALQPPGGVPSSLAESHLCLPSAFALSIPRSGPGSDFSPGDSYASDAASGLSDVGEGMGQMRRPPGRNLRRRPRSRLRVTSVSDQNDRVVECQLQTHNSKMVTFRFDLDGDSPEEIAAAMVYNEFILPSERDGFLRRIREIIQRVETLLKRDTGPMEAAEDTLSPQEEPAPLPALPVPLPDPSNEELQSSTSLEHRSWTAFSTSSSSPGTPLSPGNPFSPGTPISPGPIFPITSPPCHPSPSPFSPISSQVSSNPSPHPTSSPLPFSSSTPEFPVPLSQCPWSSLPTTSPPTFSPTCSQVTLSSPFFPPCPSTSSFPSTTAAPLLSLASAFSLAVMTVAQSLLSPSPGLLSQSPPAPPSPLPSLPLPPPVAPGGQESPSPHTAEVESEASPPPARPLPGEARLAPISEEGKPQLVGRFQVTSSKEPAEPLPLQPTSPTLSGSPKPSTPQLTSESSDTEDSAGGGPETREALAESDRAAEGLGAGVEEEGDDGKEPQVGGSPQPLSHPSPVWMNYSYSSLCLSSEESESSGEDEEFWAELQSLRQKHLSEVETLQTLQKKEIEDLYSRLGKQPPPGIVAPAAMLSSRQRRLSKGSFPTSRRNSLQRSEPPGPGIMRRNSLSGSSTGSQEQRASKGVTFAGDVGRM
Serine/threonine-protein kinase OSR1 (Homo sapiens), O95747 D459A, sequence (O95747 whole entry D459A): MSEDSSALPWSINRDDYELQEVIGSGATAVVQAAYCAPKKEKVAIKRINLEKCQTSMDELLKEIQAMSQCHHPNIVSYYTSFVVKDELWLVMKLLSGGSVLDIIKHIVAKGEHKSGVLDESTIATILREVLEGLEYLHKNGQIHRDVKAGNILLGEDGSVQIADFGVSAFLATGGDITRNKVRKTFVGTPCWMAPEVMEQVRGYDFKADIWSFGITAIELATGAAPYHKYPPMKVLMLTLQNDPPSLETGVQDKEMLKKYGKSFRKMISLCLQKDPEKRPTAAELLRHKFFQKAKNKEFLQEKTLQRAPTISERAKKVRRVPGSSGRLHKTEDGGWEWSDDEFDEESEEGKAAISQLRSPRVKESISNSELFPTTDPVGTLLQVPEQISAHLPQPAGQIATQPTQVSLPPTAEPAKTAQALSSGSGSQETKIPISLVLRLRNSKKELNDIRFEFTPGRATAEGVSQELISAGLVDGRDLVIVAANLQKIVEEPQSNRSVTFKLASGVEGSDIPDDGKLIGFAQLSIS
wnk1_human WNK1, sequence (Q9H4A3 whole entry, looked up): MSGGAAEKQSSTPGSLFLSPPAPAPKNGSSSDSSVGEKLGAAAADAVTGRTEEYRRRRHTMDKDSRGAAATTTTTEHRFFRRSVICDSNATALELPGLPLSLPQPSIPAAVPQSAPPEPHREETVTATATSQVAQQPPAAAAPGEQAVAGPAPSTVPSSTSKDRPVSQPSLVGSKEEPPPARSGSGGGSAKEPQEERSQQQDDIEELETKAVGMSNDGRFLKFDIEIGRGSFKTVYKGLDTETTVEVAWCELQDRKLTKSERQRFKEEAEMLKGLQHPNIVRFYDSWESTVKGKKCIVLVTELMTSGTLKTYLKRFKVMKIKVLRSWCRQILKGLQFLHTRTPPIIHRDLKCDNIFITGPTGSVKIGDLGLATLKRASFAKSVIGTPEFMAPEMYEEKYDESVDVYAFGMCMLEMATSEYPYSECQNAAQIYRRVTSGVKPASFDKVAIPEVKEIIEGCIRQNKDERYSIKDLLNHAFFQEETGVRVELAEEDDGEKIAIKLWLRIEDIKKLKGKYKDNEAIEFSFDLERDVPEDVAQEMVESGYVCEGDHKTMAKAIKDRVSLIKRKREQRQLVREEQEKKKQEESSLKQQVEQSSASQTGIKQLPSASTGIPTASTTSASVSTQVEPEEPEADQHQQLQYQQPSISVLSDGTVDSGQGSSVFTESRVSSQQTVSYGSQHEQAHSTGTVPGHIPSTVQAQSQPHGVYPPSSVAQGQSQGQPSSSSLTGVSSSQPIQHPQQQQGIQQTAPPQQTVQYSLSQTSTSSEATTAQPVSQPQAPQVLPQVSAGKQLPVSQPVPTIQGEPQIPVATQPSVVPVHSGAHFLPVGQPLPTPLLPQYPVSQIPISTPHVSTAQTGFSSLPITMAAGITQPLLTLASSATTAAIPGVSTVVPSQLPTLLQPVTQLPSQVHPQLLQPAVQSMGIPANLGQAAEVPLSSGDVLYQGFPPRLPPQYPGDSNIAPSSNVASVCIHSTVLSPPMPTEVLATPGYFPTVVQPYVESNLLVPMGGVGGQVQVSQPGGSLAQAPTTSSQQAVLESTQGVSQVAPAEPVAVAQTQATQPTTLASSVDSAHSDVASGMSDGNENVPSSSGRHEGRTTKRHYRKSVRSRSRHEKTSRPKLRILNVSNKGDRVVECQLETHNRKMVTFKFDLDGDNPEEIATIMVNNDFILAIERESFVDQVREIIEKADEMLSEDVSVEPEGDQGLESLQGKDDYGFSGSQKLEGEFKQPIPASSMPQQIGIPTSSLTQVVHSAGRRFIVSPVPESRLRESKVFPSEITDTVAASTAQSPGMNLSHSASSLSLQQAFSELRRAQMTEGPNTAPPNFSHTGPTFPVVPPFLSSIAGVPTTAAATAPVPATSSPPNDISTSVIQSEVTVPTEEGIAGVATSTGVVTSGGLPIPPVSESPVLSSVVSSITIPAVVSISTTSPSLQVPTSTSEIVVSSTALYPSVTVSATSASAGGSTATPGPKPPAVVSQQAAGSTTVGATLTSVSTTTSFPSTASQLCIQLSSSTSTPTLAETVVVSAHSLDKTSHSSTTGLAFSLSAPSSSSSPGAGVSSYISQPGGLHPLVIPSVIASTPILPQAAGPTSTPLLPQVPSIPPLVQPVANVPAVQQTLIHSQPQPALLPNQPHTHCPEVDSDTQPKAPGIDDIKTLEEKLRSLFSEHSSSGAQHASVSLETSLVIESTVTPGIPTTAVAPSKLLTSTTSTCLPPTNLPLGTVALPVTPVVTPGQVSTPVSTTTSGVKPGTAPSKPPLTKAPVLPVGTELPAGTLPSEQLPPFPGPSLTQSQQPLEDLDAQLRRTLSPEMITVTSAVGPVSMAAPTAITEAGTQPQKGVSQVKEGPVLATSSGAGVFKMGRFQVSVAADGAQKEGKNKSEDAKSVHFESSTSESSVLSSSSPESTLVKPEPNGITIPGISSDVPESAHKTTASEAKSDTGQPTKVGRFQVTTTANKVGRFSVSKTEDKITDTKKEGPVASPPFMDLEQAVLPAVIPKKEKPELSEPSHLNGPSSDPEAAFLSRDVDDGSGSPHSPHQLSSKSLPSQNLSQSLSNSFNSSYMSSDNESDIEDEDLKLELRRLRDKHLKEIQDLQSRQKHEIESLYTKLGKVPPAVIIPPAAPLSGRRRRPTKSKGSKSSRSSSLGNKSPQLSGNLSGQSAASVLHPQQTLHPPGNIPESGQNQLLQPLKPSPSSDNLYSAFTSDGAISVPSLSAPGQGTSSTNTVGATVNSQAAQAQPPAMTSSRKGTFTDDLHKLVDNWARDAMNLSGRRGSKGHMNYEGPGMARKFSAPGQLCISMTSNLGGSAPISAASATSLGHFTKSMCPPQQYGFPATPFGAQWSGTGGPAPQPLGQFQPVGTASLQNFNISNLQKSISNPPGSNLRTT

Substance: Serine/threonine-protein kinase OSR1 (Homo sapiens), O95747 E467A
- effect of a mutation on the interaction [2]: disrupting interaction

Substance: Serine/threonine-protein kinase OSR1 (Homo sapiens), O95747 E446A
- effect of a mutation on the interaction [3]: decreasing interaction

Substance: Serine/threonine-protein kinase OSR1 (Homo sapiens), O95747 D459A
- effect of a mutation on the interaction [5]: disrupting interaction
- effect of a mutation on the interaction [6]: disrupting interaction
- effect of a mutation on the interaction [7]: disrupting interaction

Substance: Serine/threonine-protein kinase OSR1 (Homo sapiens), O95747 I450A
- effect of a mutation on the interaction [8]: disrupting interaction

Substance: Serine/threonine-protein kinase OSR1 (Homo sapiens), O95747 L473A
- effect of a mutation on the interaction [9]: disrupting interaction
- effect of a mutation on the interaction [10]: disrupting interaction
- effect of a mutation on the interaction [11]: disrupting interaction

Further lines, results first:

- effect of a mutation on the interaction [1]: decreasing interaction
Substance: Serine/threonine-protein kinase OSR1 (Homo sapiens), O95747 R451A

- effect of a mutation on the interaction [4]: decreasing interaction
Substance: Serine/threonine-protein kinase OSR1 (Homo sapiens), O95747 D449A

- effect of a mutation on the interaction [12]: decreasing interaction
Substance: Serine/threonine-protein kinase OSR1 (Homo sapiens), O95747 A471L

- effect of a mutation on the interaction [13]: disrupting interaction
Substance: Serine/threonine-protein kinase OSR1 (Homo sapiens), O95747 L468F
